# Laboratory results taken from patent publication US20140322196A1.
# Values joined by “and” are separate entries in the source; they are usually repeats but may differ in a detail not shown here. Equal entries are not always repeated.
# Tests used:
# [1] = biological target: Hemagglutinin (HA) of Influenza A virus A/Roma-ISS/2/08 (Brisbane-like) (oseltamivir-sensitive) H1N1 (Influenza A virus A/RomaISS/2/08 H1N1)
# [2] = biological target: Hemagglutinin (HA) of Influenza A virus A/Parma/5/06 (Wisconsin-like) H3N2 (Influenza A virus A/Parma/05/06 H3N2); test: cell-based or functional assay
# [3] = biological target: Hemagglutinin (HA) of Influenza A virus A/Puerto Rico/8/34 H1N1 (PR8 virus) (Influenza A virus A/Puerto Rico/8/34 H1N1) (UniProt P03452); test: cell-based or functional assay
# [4] = biological target: Hemagglutinin (HA) of Influenza A virus A/Roma-ISS/2/08 (Brisbane-like) (oseltamivir-sensitive) H1N1 (Influenza A virus A/RomaISS/2/08 H1N1); test: cell-based or functional assay
# [5] = biological target: Hemagglutinin (HA) of Influenza A virus A/Turkey/Italy/2676/99 H7N1 (Influenza A virus A/Turkey/Italy/2676/99 H7N1); test: cell-based or functional assay
Substance,percentage of virus binding to bLf [1],HI titre [2] [pM],HI titre [3] [nM],HI titre [4] [pM],HI titre [5] [fM]
Lactoferrin from bovine milk (bLf) (from UniProt P24627 20-708),52.9% and 34.1% and 47.2%,3000,3,6000,93.1
"… (SEQ ID NO: 1), bLf C-lobe peptide 418-429",–,0.7,0.7,1.4,18
"… (SEQ ID NO: 2), bLf C-lobe peptide 506-522",–,0.7,0.35,1.4,46.5
